The values that follow come from article PMC6973334.

Test [1] deals with LINGO-1 ectodomain (free ectodomain made from LINGO-1-Fc by limited proteolysis with chymotrypsin) (Homo sapiens). Nature of the test: SEC.
Test [2] has the same target. Nature of the test: SEC-MALS.
The target is the same in test [3]. Nature of the test: SEC-MALS. The source holds these as a separate data set.

Values joined by “and” are separate entries in the source; they are usually repeats but may differ in a detail not shown here. Equal values may be shown once. Read-outs that look alike come from different tables or passages of the source.

Chain of LINGO-1 ectodomain (free ectodomain made from LINGO-1-Fc by limited proteolysis with chymotrypsin) (Homo sapiens) (Q96FE5 42-561): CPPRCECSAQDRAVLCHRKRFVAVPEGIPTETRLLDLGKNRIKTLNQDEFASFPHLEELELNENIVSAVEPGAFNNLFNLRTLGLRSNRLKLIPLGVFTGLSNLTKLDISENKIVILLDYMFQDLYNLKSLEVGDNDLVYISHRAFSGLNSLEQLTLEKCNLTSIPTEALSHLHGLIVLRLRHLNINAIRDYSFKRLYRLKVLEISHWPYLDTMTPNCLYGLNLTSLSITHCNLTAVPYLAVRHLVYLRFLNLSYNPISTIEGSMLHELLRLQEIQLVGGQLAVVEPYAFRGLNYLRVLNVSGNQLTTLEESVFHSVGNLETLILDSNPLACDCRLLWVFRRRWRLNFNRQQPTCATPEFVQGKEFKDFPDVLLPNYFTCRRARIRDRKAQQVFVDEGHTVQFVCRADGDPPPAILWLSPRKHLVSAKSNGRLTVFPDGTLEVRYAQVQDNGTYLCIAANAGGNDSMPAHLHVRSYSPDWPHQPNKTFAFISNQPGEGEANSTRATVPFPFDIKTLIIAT

The substance Li81 R18S/S31R mAb (antibody) registered a reduction of the concatemer peaks in test [1] of 25%.

In the case of Li81 R18S/S31R/R54T mAb (antibody), the stoichiometry N (LINGO-1 per mAb) was 2 and 1 in test [2]; 2 in test [3].

Li81 R18S/R54T mAb (antibody): the reduction of the concatemer peaks in test [1] was found to be 50%.
